Where a chain is given by its changes, count along the chain named.
T1: FcγRIIa(R) extracellular domain with C-terminal His tag (human, UniProt P12318 34-217)
T1 construct: extracellular domain; R131 allotype; also called 2aR; CD32
T1 sequence: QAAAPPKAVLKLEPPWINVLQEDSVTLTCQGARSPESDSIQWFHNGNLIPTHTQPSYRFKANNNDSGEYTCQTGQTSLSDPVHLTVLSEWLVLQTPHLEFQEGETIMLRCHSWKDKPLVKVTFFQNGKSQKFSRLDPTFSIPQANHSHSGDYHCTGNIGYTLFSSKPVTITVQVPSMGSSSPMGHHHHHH

T2: FcγRIIa(H) extracellular domain with C-terminal His tag (human, UniProt P12318 34-217)
T2 construct: extracellular domain; H131 allotype; also called 2aH; CD32
T2 sequence: T1 sequence with R134H

T3: FcγRIIb extracellular domain with C-terminal His tag (human, UniProt P31994 43-217)
T3 construct: extracellular domain; also called 2b; CD32
T3 sequence: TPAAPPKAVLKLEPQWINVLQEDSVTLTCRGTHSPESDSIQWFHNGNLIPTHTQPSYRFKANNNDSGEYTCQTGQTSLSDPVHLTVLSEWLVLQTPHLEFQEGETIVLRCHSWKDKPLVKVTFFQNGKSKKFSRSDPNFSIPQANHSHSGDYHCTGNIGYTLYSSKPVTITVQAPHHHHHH

B1: GpH7-A5/GpH7-B3 variant P331_03V/GpL16-k0 (antibody, human IgG1, kappa)
heavy 1: not shown
heavy 2: not shown
light: DIVMTQSPLSLPVTPGEPASISCQASESLVHSNRNTYLHWYLQKPGQSPQLLIYKVSNRFSGVPDRFSGSGSGTDFTLKISRVEAEDVGVYYCSQNTHVPPTFGQGTKVEIERTVAAPSVFIFPPSDEQLKSGTASVVCLLNNFYPREAKVQWKVDNALQSGNSQESVTEQDSKDSTYSLSSTLTLSKADYEKHKVYACEVTHQGLSSPVTKSFNRGEC
notes: heterodimerized IgG1 (He Ab), mutation in one H chain only; also called He Ab
B2: GpH7-A5/GpH7-B3 variant P331_20W/GpL16-k0 (antibody, human IgG1, kappa)
heavy 1: not shown
heavy 2: not shown
light: B1 light
notes: as for B1
B3: GpH7-A5/GpH7-B3 variant P331_09D/GpL16-k0 (antibody, human IgG1, kappa)
heavy 1: not shown
heavy 2: not shown
light: B1 light
notes: as for B1
B4: GpH7-A5/GpH7-B3 variant S337_04F/GpL16-k0 (antibody, human IgG1, kappa)
heavy 1: not shown
heavy 2: not shown
light: B1 light
notes: as for B1
B5: GpH7-A5/GpH7-B3 variant P331_07I/GpL16-k0 (antibody, human IgG1, kappa)
heavy 1: not shown
heavy 2: not shown
light: B1 light
notes: as for B1
B6: GpH7-A5/GpH7-B3 variant P331_11K/GpL16-k0 (antibody, human IgG1, kappa)
heavy 1: not shown
heavy 2: not shown
light: B1 light
notes: as for B1
B7: GpH7-A5/GpH7-B3 variant S337_03V/GpL16-k0 (antibody, human IgG1, kappa)
heavy 1: not shown
heavy 2: not shown
light: B1 light
notes: as for B1
B8: GpH7-A5/GpH7-B3 variant S337_01G/GpL16-k0 (antibody, human IgG1, kappa)
heavy 1: not shown
heavy 2: not shown
light: B1 light
notes: as for B1
B9: GpH7-A5/GpH7-B3 variant S337_02A/GpL16-k0 (antibody, human IgG1, kappa)
heavy 1: not shown
heavy 2: not shown
light: B1 light
notes: as for B1
B10: GpH7-A5/GpH7-B3 variant P331_18N/GpL16-k0 (antibody, human IgG1, kappa)
heavy 1: not shown
heavy 2: not shown
light: B1 light
notes: as for B1
B11: GpH7-A5/GpH7-B3 variant P331_10E/GpL16-k0 (antibody, human IgG1, kappa)
heavy 1: not shown
heavy 2: not shown
light: B1 light
notes: as for B1
B12: GpH7-A5/GpH7-B3 variant P331_16H/GpL16-k0 (antibody, human IgG1, kappa)
heavy 1: not shown
heavy 2: not shown
light: B1 light
notes: as for B1
B13: GpH7-A5/GpH7-B3 variant P331_13S/GpL16-k0 (antibody, human IgG1, kappa)
heavy 1: not shown
heavy 2: not shown
light: B1 light
notes: as for B1
B14: GpH7-A5/GpH7-B3 variant P331_08L/GpL16-k0 (antibody, human IgG1, kappa)
heavy 1: not shown
heavy 2: not shown
light: B1 light
notes: as for B1
B15: GpH7-A5/GpH7-B3 variant P331_06M/GpL16-k0 (antibody, human IgG1, kappa)
heavy 1: not shown
heavy 2: not shown
light: B1 light
notes: as for B1
B16: GpH7-A5/GpH7-B3 variant S337_06M/GpL16-k0 (antibody, human IgG1, kappa)
heavy 1: not shown
heavy 2: not shown
light: B1 light
notes: as for B1
B17: GpH7-A5/GpH7-B3 variant P331_19Q/GpL16-k0 (antibody, human IgG1, kappa)
heavy 1: not shown
heavy 2: not shown
light: B1 light
notes: as for B1
B18: GpH7-A5/GpH7-B3 variant P331_12R/GpL16-k0 (antibody, human IgG1, kappa)
heavy 1: not shown
heavy 2: not shown
light: B1 light
notes: as for B1
B19: GpH7-A5/GpH7-B3 variant P331_15Y/GpL16-k0 (antibody, human IgG1, kappa)
heavy 1: not shown
heavy 2: not shown
light: B1 light
notes: as for B1
B20: GpH7-A5/GpH7-B3 variant P331_04F/GpL16-k0 (antibody, human IgG1, kappa)
heavy 1: not shown
heavy 2: not shown
light: B1 light
notes: as for B1
B21: GpH7-A5/GpH7-B3 variant P331_14T/GpL16-k0 (antibody, human IgG1, kappa)
heavy 1: not shown
heavy 2: not shown
light: B1 light
notes: as for B1

target: T4, FcγRIa extracellular domain with C-terminal His tag (human, UniProt P12314 16-292); assay: SPR; % of GpH7-A5/GpH7-B3/GpL16-k0
T4 construct: extracellular domain; also called 1a; CD64
T4 sequence (P12314 other isoform, or with tags, fused parts or gaps): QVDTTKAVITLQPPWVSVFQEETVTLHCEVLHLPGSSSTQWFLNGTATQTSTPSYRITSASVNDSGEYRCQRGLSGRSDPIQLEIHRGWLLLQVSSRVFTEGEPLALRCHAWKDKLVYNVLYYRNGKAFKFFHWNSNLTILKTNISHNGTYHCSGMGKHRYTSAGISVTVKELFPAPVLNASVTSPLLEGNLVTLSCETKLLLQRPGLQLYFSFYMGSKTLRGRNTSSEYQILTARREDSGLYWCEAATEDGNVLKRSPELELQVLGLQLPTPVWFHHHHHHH

Row | Binder | He/Con 1a
1 | B1 | 104%
2 | B2 | 107%
3 | B3 | 109%
4 | B4 | 103%
5 | B5 | 106%
6 | B6 | 100%
7 | B7 | 103%
8 | B8 | 103%
9 | B9 | 102%
10 | B10 | 106%
11 | B11 | 108%
12 | B12 | 105%
13 | B13 | 108%
14 | B14 | 105%
15 | B15 | 106%
16 | B16 | 104%
17 | B17 | 108%
18 | B18 | 100%
19 | B19 | 109%
20 | B20 | 108%
21 | B21 | 102%

target: T1, FcγRIIa(R) extracellular domain with …; assay: SPR; % of GpH7-A5/GpH7-B3/GpL16-k0

Row | Binder | He/Con 2aR
22 | B1 | 114%
23 | B2 | 109%
24 | B3 | 101%
25 | B4 | 106%
26 | B5 | 109%
27 | B6 | 94.6%
28 | B7 | 108%
29 | B8 | 101%
30 | B9 | 107%
31 | B10 | 104%
32 | B11 | 112%
33 | B12 | 113%
34 | B13 | 104%
35 | B14 | 101%
36 | B15 | 105%
37 | B16 | 107%
38 | B17 | 96.1%
39 | B18 | 88.7%
40 | B19 | 112%
41 | B20 | 110%
42 | B21 | 104%

target: T2, FcγRIIa(H) extracellular domain with …; assay: SPR; % of GpH7-A5/GpH7-B3/GpL16-k0

Row | Binder | He/Con 2aH
43 | B1 | 85.4%
44 | B2 | 85.8%
45 | B3 | 93.6%
46 | B4 | 105%
47 | B5 | 80.1%
48 | B6 | 83.7%
49 | B7 | 104%
50 | B8 | 98.7%
51 | B9 | 103%
52 | B10 | 87.2%
53 | B11 | 90.1%
54 | B12 | 87.5%
55 | B13 | 94%
56 | B14 | 85.9%
57 | B15 | 88.1%
58 | B16 | 104%
59 | B17 | 91.6%
60 | B18 | 84.3%
61 | B19 | 89%
62 | B20 | 87.7%
63 | B21 | 86.5%

target: T3, FcγRIIb extracellular domain with …; assay: SPR; % of GpH7-A5/GpH7-B3/GpL16-k0

Row | Binder | He/Con 2b
64 | B1 | 132%
65 | B2 | 123%
66 | B3 | 104%
67 | B4 | 107%
68 | B5 | 127%
69 | B6 | 93.9%
70 | B7 | 108%
71 | B8 | 100%
72 | B9 | 106%
73 | B10 | 110%
74 | B11 | 128%
75 | B12 | 128%
76 | B13 | 107%
77 | B14 | 106%
78 | B15 | 113%
79 | B16 | 106%
80 | B17 | 94%
81 | B18 | 85%
82 | B19 | 127%
83 | B20 | 122%
84 | B21 | 111%

target: T5, FcγRIIIa extracellular domain with C-terminal His tag (human, UniProt P08637 17-208); assay: SPR; % of GpH7-A5/GpH7-B3/GpL16-k0
T5 construct: extracellular domain; also called 3a; CD16
T5 sequence (P08637 other isoform, or with tags, fused parts or gaps): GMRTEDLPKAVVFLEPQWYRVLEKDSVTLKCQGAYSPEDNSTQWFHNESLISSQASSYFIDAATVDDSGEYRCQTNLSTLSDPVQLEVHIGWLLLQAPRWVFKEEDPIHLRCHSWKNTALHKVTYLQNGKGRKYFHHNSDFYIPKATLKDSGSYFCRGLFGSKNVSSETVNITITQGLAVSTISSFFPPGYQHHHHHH

Row | Binder | He/Con 3a
85 | B1 | 66.9%
86 | B2 | 71.9%
87 | B3 | 71.6%
88 | B4 | 94.4%
89 | B5 | 60.4%
90 | B6 | 61.8%
91 | B7 | 87.1%
92 | B8 | 95.2%
93 | B9 | 92.4%
94 | B10 | 67.1%
95 | B11 | 68.7%
96 | B12 | 73.4%
97 | B13 | 80.9%
98 | B14 | 66%
99 | B15 | 68.4%
100 | B16 | 89.7%
101 | B17 | 73.9%
102 | B18 | 64.8%
103 | B19 | 74.9%
104 | B20 | 70.7%
105 | B21 | 67.8%

From patent US20260167699A1 (Chugai, published 2026)
